Article PMC13323077, “Hydrophobic tuning with non-canonical amino acids in a copper metalloenzyme” (Nature Chemistry, 2026)

Assays:
[1] = substrate: CC(=O)N1c2ccc(O)cc2Oc2cc(O)ccc21; assay: purified protein; format: biochemical, Streptomyces coelicolor; conditions: pH 7.0, 25 °C, 20 mM Britton-Robinson buffer
[2] = substrate: CCn1c(=NN=c2sc3cc(S(=O)(=O)O)ccc3n2CC)sc2cc(S(=O)(=O)O)ccc21; assay: purified protein; format: biochemical, Streptomyces coelicolor; conditions: pH 4.0, 25 °C, 20 mM Britton-Robinson buffer
[3] = 500 µM CuCl2, air O2, 1 µM enzyme
[4] = 1 mM CuCl2, air O2, 1,000 nM enzyme

B1: ScSLAC (Streptomyces coelicolor A3(2)) (protein)
chain: APAAKGITARTAPAGGEVRHLKMYAEKLADGQMGYGFEKGKASVPGPLIEVNEGDTLHIEFTNTMDVRASLHVHGLDYEISSDGTAMNKSDVEPGGTRTYTWRTHKPGRRDDGTWRPGSAGYWHYHDHVVGTEHGTGGIRNGLYGPVIVRRKGDVLPDATHTIVFNDMTINNRKPHTGPDFEATVGDRVEIVMITHGEYYHTFHMHGHRWADNRTGILTGPDDPSRVIDNKITGPADSFGFQIIAGEGVGAGAWMYHCHVQSHSDMGMVGLFLVKKPDGTIPGYEPHEHGGATAKSGESGEPTGGAAAHEHEH
notes: N-terminal signal peptide (residues 2-30) removed, C-terminal His6, pET28, expressed in E. coli B-95deltaAdeltafabR, Cu-loaded; homotrimer (known biology)
[1]; [3]
  Km: 0.25(3) mM
  kcat: 0.045(4) min-1
[2]; 1 mM CuCl2, air O2, 200 nM enzyme
  Km: 0.96(5) mM

B2: ScSLAC (Streptomyces coelicolor A3(2); M298F) (protein)
chain: APAAKGITARTAPAGGEVRHLKMYAEKLADGQMGYGFEKGKASVPGPLIEVNEGDTLHIEFTNTMDVRASLHVHGLDYEISSDGTAMNKSDVEPGGTRTYTWRTHKPGRRDDGTWRPGSAGYWHYHDHVVGTEHGTGGIRNGLYGPVIVRRKGDVLPDATHTIVFNDMTINNRKPHTGPDFEATVGDRVEIVMITHGEYYHTFHMHGHRWADNRTGILTGPDDPSRVIDNKITGPADSFGFQIIAGEGVGAGAWMYHCHVQSHSDMGFVGLFLVKKPDGTIPGYEPHEHGGATAKSGESGEPTGGAAAHEHEH
notes: as for B1
[2]; [4]
  Km: 0.4(1) mM
  kcat: 0.19(3) s-1

B3: ScSLAC (Streptomyces coelicolor A3(2); M298L) (protein)
chain: APAAKGITARTAPAGGEVRHLKMYAEKLADGQMGYGFEKGKASVPGPLIEVNEGDTLHIEFTNTMDVRASLHVHGLDYEISSDGTAMNKSDVEPGGTRTYTWRTHKPGRRDDGTWRPGSAGYWHYHDHVVGTEHGTGGIRNGLYGPVIVRRKGDVLPDATHTIVFNDMTINNRKPHTGPDFEATVGDRVEIVMITHGEYYHTFHMHGHRWADNRTGILTGPDDPSRVIDNKITGPADSFGFQIIAGEGVGAGAWMYHCHVQSHSDMGLVGLFLVKKPDGTIPGYEPHEHGGATAKSGESGEPTGGAAAHEHEH
notes: as for B1
[2]; [4]
  Km: 1.19(7) mM
  kcat: 0.32(1) s-1

B4: ScSLAC (Streptomyces coelicolor A3(2); M296W/S292P) (protein)
chain: APAAKGITARTAPAGGEVRHLKMYAEKLADGQMGYGFEKGKASVPGPLIEVNEGDTLHIEFTNTMDVRASLHVHGLDYEISSDGTAMNKSDVEPGGTRTYTWRTHKPGRRDDGTWRPGSAGYWHYHDHVVGTEHGTGGIRNGLYGPVIVRRKGDVLPDATHTIVFNDMTINNRKPHTGPDFEATVGDRVEIVMITHGEYYHTFHMHGHRWADNRTGILTGPDDPSRVIDNKITGPADSFGFQIIAGEGVGAGAWMYHCHVQPHSDWGMVGLFLVKKPDGTIPGYEPHEHGGATAKSGESGEPTGGAAAHEHEH
notes: as for B1
[1]; 500 µM CuCl2, air O2
  Km: 0.144(5) mM
  kcat: 0.405(4) min-1
